Read-outs that look alike come from different tables or passages of the source. Values belong to the compound of their own block, whether it stands above or below them.
Assays:
[1] = tested on: CD4 T cell clone BDC-5.2.9; type: cell-based, NOD mouse; conditions: 24 h
[2] = molecular target: islet amyloid polypeptide (IAPP), peptide CS19 peptide on I-Ag7 (mouse); assay: IFN-γ ELISA
[3] = molecular target: islet amyloid polypeptide (IAPP), peptide KG38 peptide on I-Ag7 (mouse); assay: IFN-γ ELISA
[4] = molecular target: islet amyloid polypeptide (IAPP), peptide KN14 peptide on I-Ag7 (mouse); assay: IFN-γ ELISA
[5] = molecular target: islet amyloid polypeptide (IAPP), peptide KQ10 peptide on I-Ag7 (mouse); assay: IFN-γ ELISA
[6] = molecular target: islet amyloid polypeptide (IAPP), peptide KS20 peptide on I-Ag7 (mouse); assay: IFN-γ ELISA
[7] = molecular target: islet amyloid polypeptide (IAPP), peptide KV17 peptide on I-Ag7 (mouse); assay: IFN-γ ELISA
[8] = molecular target: islet amyloid polypeptide (IAPP), peptide NS18 peptide on I-Ag7 (mouse); assay: IFN-γ ELISA
[9] = molecular target: islet amyloid polypeptide (IAPP), peptide TS17 peptide on I-Ag7 (mouse); assay: IFN-γ ELISA
[10] = T cell clone BDC-5.2.9 (2 × 10^4) with peritoneal exudate cells (2.5 × 10^4) and peptide, IFN-γ in culture supernatants of duplicate wells by ELISA

- EC50 [1]: 0.2 nM
Compound: CC(C)C[C@H](NC(=O)[C@H](CC(N)=O)NC(=O)[C@H](CC(N)=O)NC(=O)[C@H](CO)NC(=O)[C@H](CO)NC(=O)[C@H](CCCNC(=N)N)NC(=O)[C@@H](NC(=O)[C@H](CC(C)C)NC(=O)[C@H](Cc1ccccc1)NC(=O)[C@H](CC(N)=O)NC(=O)[C@H](C)NC(=O)[C@H](CC(C)C)NC(=O)[C@H](CCCNC(=N)N)NC(=O)[C@H](CCC(N)=O)NC(=O)[C@@H](NC(=O)[C@H](C)NC(=O)[C@@H]1CSSC[C@H](NC(=O)[C@@H](N)CCCCN)C(=O)N[C@@H](CC(N)=O)C(=O)N[C@@H]([C@@H](C)O)C(=O)N[C@@H](C)C(=O)N[C@@H]([C@@H](C)O)C(=O)N1)[C@@H](C)O)C(C)C)C(=O)NCC(=O)N1CCC[C@H]1C(=O)N[C@H](C(=O)N[C@@H](CC(C)C)C(=O)N1CCC[C@H]1C(=O)N1CCC[C@H]1C(=O)N[C@H](C(=O)N[C@@H](CC(N)=O)C(=O)N[C@H](C(=O)NCC(=O)N[C@@H](CO)C(=O)N[C@@H](CC(N)=O)C(=O)N[C@H](C(=O)N[C@@H](Cc1ccc(O)cc1)C(=O)NCC(=O)O)[C@@H](C)O)C(C)C)[C@@H](C)O)C(C)C [KG38]

- EC50 of peptide [2]: 5 nM
- EC50 of peptide [3]: 0.2 nM
- EC50 of peptide [4]: > 100000 nM
- EC50 of peptide [5]: > 100000 nM
- EC50 of peptide [6]: 0.2 nM
- EC50 of peptide [7]: 10 nM
- EC50 of peptide [8]: > 100000 nM
- EC50 of peptide [9]: > 100000 nM
Compound: BDC-5.2.9

- EC50 [1, 10]: > 100000 nM
Compound: TATCATQRLANFLVRSS [TS17]

- EC50 [1, 10]: > 100000 nM
Compound: KCNTATCATQRLAN [KN14]

- EC50 [1, 10]: > 100000 nM
Compound: NTATCATQRLANFLVRSS [NS18]

- EC50 [1, 10]: > 100000 nM
Compound: KCNTATCATQ [KQ10]
